From US20230192896A1 (BIOVERATIV THERAPEUTICS, published 2023)

B1: BIIB-9-592 (antibody, V domains shown)
VH: QLQLQESGPGLVKPSETLSLTCTVSGGSISSNSYYWGWIRQPPGKGLEWIGSIYYSGSTYYNPSLKSRVTISVDTSKNQFSLKLSSVTAADTAVYYCARDSNYDSSGYALYYYGMDVWGQGTTVTVSS
VL: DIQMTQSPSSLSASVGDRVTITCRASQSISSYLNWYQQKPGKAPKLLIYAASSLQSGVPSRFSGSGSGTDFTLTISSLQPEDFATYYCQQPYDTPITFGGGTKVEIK
notes: IgG
B2: BIIB-9-581 (antibody, V domains shown)
VH: QVQLVQSGAEVKKPGASVKVSCKASGYTFTSYYMHWVRQAPGQGLEWMGIINPSGGSTSYAQKFQGRVTMTRDTSTSTVYMELSSLRSEDTAVYYCARDPLYYREGYVFDYWGQGTLVTVSS
VL: DIQMTQSPSSLSASVGDRVTITCRASQSISSYLNWYQQKPGKAPKLLIYAASSLQSGVPSRFSGSGSGTDFTLTISSLQPEDFATYYCQQSDLFPFTFGGGTKVEIK
notes: IgG
B3: BIIB-9-605 (antibody, V domains shown)
VH: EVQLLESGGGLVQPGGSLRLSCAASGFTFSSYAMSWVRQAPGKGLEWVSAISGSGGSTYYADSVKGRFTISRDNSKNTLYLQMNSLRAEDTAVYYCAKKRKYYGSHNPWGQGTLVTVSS
VL: DIQMTQSPSSVSASVGDRVTITCRASQGISSWLAWYQQKPGKAPKLLIYAASSLQSGVPSRFSGSGSGTDFTLTISSLQPEDFATYYCQQADVFPFTFGGGTKVEIK
notes: IgG
B4: BIIB-9-585 (antibody, V domains shown)
VH: QLQLQESGPGLVKPSETLSLTCTVSGGSISSSDYYWGWIRQPPGKGLEWIGSIYYSGSTYYNPSLKSRVTISVDTSKNQFSLKLSSVTAADTAVYYCAREVGTYYYGLDFWFDPWGQGTLVTVSS
VL: DIQMTQSPSSVSASVGDRVTITCRASQGISSWLAWYQQKPGKAPKLLIYAASSLQSGVPSRFSGSGSGTDFTLTISSLQPEDFATYYCQQANSYPITFGGGTKVEIK
notes: IgG
B5: BIIB-9-415 (antibody, V domains shown)
VH: QVQLVQSGAEVKKPGASVKVSCKASGYTFTSYYMHWVRQAPGQGLEWMGIINPSGGSTSYAQKFQGRVTMTRDTSTSTVYMELSSLRSEDTAVYYCARDGLSSGYYWDNWGQGTLVTVSS
VL: DIQMTQSPSSVSASVGDRVTITCRASQGIDSWLAWYQQKPGKAPKLLIYAASSLQSGVPSRFSGSGSGTDFTLTISSLQPEDFATYYCQQGDAFPFTFGGGTKVEIK
notes: IgG
B6: BIIB-9-587 (antibody, V domains shown)
VH: QVQLVQSGAEVKKPGASVKVSCKASGYTFTSYYMHWVRQAPGQGLEWMGIINPSGGSTSYAQKFQGRVTMTRDTSTSTVYMELSSLRSEDTAVYYCARGPPGYEYYMDVWGKGTTVTVSS
VL: DIQMTQSPSSVSASVGDRVTITCRASQGISSWLAWYQQKPGKAPKLLIYAASSLQSGVPSRFSGSGSGTDFTLTISSLQPEDFATYYCQQADSFPFTFGGGTKVEIK
notes: IgG
B7: BIIB-9-414 (antibody, V domains shown)
VH: QVQLVQSGAEVKKPGASVKVSCKASGYTFTSYYMHWVRQAPGQGLEWMGIINPSGGSTSYAQKFQGRVTMTRDTSTSTVYMELSSLRSEDTAVYYCARDPYSYGMYYFDYWGQGTLVTVSS
VL: DIQMTQSPSSVSASVGDRVTITCRASQGISSWLAWYQQKPGKAPKLLIYAASSLQSGVPSRFSGSGSGTDFTLTISSLQPEDFATYYCQQGDVFPFTFGGGTKVEIK
notes: IgG
B8: BIIB-9-621 (antibody, V domains shown)
VH: QLQLQESGPGLVKPSETLSLTCTVSGGSISSSSYYWGWIRQPPGKGLEWIGSIYYSGSTYYNPSLKSRVTISVDTSKNQFSLKLSSVTAADTAVYYCARDGSISGSRFDYWGQGTLVTVSS
VL: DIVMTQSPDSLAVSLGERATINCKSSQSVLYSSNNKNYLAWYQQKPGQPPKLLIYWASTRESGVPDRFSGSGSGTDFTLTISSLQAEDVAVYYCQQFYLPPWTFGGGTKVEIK
notes: IgG
B9: BIIB-9-475 (antibody, V domains shown)
VH: QVQLQESGPGLVKPSETLSLTCTVSGGSISSYYWSWIRQPPGKGLEWIGSIYYSGSTNYNPSLKSRVTISVDTSKNQFSLKLSSVTAADTAVYYCARDVGGYDYGVGAFDIWGQGTMVTVSS
VL: DIQMTQSPSSLSASVGDRVTITCQASQDITNYLNWYQQKPGKAPKLLIYDASNLETGVPSRFSGSGSGTDFTFTISSLQPEDIATYYCQQSSNFPLTFGGGTKVEIK
notes: IgG
B10: BIIB-9-480 (antibody, V domains shown)
VH: QVQLQESGPGLVKPSETLSLTCAVSGYSISSGYYWGWIRQPPGKGLEWIGSSYHSGSTYYNPSLKSRVTISVDTSKNQFSLKLSSVTAADTAVYYCARDQQDYGAFDIWGQGTMVTVSS
VL: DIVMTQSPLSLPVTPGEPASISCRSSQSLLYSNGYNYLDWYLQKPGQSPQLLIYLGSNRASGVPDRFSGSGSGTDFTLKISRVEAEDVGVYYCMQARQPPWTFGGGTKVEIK
notes: IgG
B11: BIIB-9-606 (antibody, V domains shown)
VH: QVQLVQSGAEVKKPGASVKVSCKASGYTFTSYYMHWVRQAPGQGLEWMGIINPSGGSTSYAQKFQGRVTMTRDTSTSTVYMELSSLRSEDTAVYYCARTKWSSSPYGMDVWGQGTTVTVSS
VL: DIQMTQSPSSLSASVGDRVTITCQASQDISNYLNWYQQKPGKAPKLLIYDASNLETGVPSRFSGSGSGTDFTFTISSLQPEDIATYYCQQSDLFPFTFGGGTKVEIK
notes: IgG
B12: BIIB-9-582 (antibody, V domains shown)
VH: QVQLVQSGAEVKKPGASVKVSCKASGYTFTSYYMVWVRQAPGQGLEWMGIINPSGGSTSYAQKFQGRVTMTRDTSTSTVYMELSSLRSEDTAVYYCARAPTYFYSYGMDVWGQGTTVTVSS
VL: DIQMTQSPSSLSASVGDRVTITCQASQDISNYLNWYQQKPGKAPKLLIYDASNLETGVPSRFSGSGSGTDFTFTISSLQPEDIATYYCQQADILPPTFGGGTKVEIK
notes: IgG
B13: BIIB-9-569 (antibody, V domains shown)
VH: QVQLVQSGAEVKKPGASVKVSCKASGYTFTSYYMHWVRQAPGQGLEWMGIINPSGGSTSYAQKFQGRVTMTRDTSTSTVYMELSSLRSEDTAVYYCARDGSGYSPYSFDPWGQGTLVTVSS
VL: DIQMTQSPSSLSASVGDRVTITCQASQDISNYLNWYQQKPGKAPKLLIYDASNLATGVPSRFSGSGSGTDFTFTISSLQPEDIATYYCQQADDFPFTFGGGTKVEIK
notes: IgG
B14: BIIB-9-608 (antibody, V domains shown)
VH: QLQLQESGPGLVKPSETLSLTCTVSGGSISSSSYYWGWIRQPPGKGLEWIGSIYYSGSTYYNPSLKSRVTISVDTSKNQFSLKLSSVTAADTAVYYCARDRLETSEAGMDVWGQGTTVTVSS
VL: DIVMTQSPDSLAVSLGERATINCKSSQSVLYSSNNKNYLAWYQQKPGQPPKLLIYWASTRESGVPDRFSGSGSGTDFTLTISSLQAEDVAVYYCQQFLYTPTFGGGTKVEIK
notes: IgG
B15: BIIB-9-627 (antibody, V domains shown)
VH: QVQLVQSGAEVKKPGASVKVSCKASGYTFTSYYMHWVRQAPGQGLEWMGIINPSGGSTSYAQKFQGRVTMTRDTSTSTVYMELSSLRSEDTAVYYCARADYDYWSGYGGLGMDVWGQGTTVTVSS
VL: not shown
notes: IgG
B16: BIIB-9-479 (antibody, V domains shown)
VH: QVQLQESGPGLVKPSETLSLTCTVSGGSISSYYWSWIRQPPGKGLEWIGSIYYSGSTNYNPSLKSRVTISVDTSKNQFSLKLSSVTAADTAVYYCAREHYGDYPLFDIWGQGTMVTVSS
VL: DIQMTQSPSTLSASVGDRVTITCRASQSISSWLAWYQQKPGKAPKLLIYKASSLESGVPSRFSGSGSGTEFTLTISSLQPDDFATYYCQQYRILSPTFGGGTKVEIK
notes: IgG
B17: BIIB-9-558 (antibody, V domains shown)
VH: EVQLVESGGGLVKPGGSLRLSCAASGFTFSSYSMNWVRQAPGKGLEWVSSISSSSSYIYYADSVKGRFTISRDNAKNSLYLQMNSLRAEDTAVYYCARSYGYGYHDFDLWGRGTLVTVSS
VL: DIQMTQSPSTLSASVGDRVTITCRASQSIGSWLAWYQQKPGKAPKLLIYKASSLESGVPSRFSGSGSGTEFTLTISSLQPDDFATYYCQQAGSYSFTFGGGTKVEIK
notes: IgG
B18: BIIB-9-590 (antibody, V domains shown)
VH: QVQLVQSGAEVKKPGASVKVSCKASGYTFTSYYMHWVRQAPGQGLEWMGIINPSGGSTSYAQKFQGRVTMTRDTSTSTVYMELSSLRSEDTAVYYCARDQEWAYYGMDVWGQGTTVTVSS
VL: EIVLTQSPATLSLSPGERATLSCRASQSVSSYLAWYQQKPGQAPRLLIYDASNRATGIPARFSGSGSGTDFTLTISSLEPEDFAVYYCQQVDNFPLTFGGGTKVEIK
notes: IgG
B19: BIIB-9-616 (antibody, V domains shown)
VH: QVQLVQSGAEVKKPGASVKVSCKASGYTFTSYYMHWVRQAPGQGLEWMGIINPSGGSTSYAQKFQGRVTMTRDTSTSTVYMELSSLRSEDTAVYYCARGGSKYFFDLWGRGTLVTVSS
VL: EIVMTQSPATLSVSPGERATLSCRASQSVSSSLAWYQQKPGQAPRLLIYGASTRATGIPARFSGSGSGTEFTLTISSLQSEDFAVYYCQQADNFPFTFGGGTKVEIK
notes: IgG
B20: BIIB-9-566 (antibody, V domains shown)
VH: QVQLVQSGAEVKKPGASVKVSCKASGYTFTSYYMVWVRQAPGQGLEWMGIINPSGGSTSYAQKFQGRVTMTRDTSTSTVYMELSSLRSEDTAVYYCARVPTYRYSYLAFDIWGQGTMVTVSS
VL: EIVMTQSPATLSVSPGERATLSCRASQSVSSSLAWYQQKPGQAPRLLIYGASTRATGIPARFSGSGSGTEFTLTISSLQSEDFAVYYCQQHDNWPPTFGGGTKVEIK
notes: IgG
B21: BIIB-9-452 (antibody, V domains shown)
VH: QVQLVQSGAEVKKPGASVKVSCKASGYTFTSYYMHWVRQAPGQGLEWMGIINPSGGSTSYAQKFQGRVTMTRDTSTSTVYMELSSLRSEDTAVYYCARDGRLSYTWDRWGQGTLVTVSS
VL: EIVMTQSPATLSVSPGERATLSCRASQSVSSNLAWYQQKPGQAPRLLIYGASTRATGIPARFSGSGSGTEFTLTISSLQSEDFAVYYCQQANNFPFTFGGGTKVEIK
notes: IgG
B22: BIIB-9-477 (antibody, V domains shown)
VH: EVQLLESGGGLVQPGGSLRLSCAASGFTFSNYAMSWVRQAPGKGLEWVSAISGSGGSTYYADSVKGRFTISRDNSKNTLYLQMNSLRAEDTAVYYCARGGVYSSSWMRFWGQGTLVTVSS
VL: EIVMTQSPATLSVSPGERATLSCRASQSVSSSLAWYQQKPGQAPRLLIFGASTRATGIPARFSGSGSGTEFTLTISSLQSEDFAVYYCQQDVNWPITFGGGTKVEIK
notes: IgG
B23: BIIB-9-622 (antibody, V domains shown)
VH: QVQLVQSGAEVKKPGASVKVSCKASGYTFTSYYMHWVRQAPGQGLEWMGIINPSGGSTSYAQKFQGRVTMTRDTSTSTVYMELSSLRSEDTAVYYCARDGATTVSYLSFDIWGQGTMVTVSS
VL: EIVMTQSPATLSVSPGERATLSCRASQSVSSSLAWYQQKPGQAPRLLIYGASTRATGIPARFSGSGSGTEFTLTISSLQSEDFAVYYCQQHSTWPPTFGGGTKVEIK
notes: IgG
B24: BIIB-12-1333 (antibody, V domains shown)
VH: QVQLVQSGAEVKKPGASVKVSCKASGYTFTSYYMVWVRQAPGQGLEWMGIINPSGGSTSYAQKFQGRVTMTRDTSTSTVYMELSSLRSEDTAVYYCARVSRRDYPLAFDIWGQGTMVTVSS
VL: EIVMTQSPATLSVSPGERATLSCRASQSVSSNLAWYQQKPGQAPRLLIYGASTRATGIPARFSGSGSGTEFTLTISSLQSEDFAVYYCQQVNTWPTFGGGTKVEIK
notes: IgG

biological target: T1, FIXa-SM (FIXa+EGR-CMK) (human, UniProt P00740 47-191; P00740 227-461, EGR-CMK (L-Glu-Gly-Arg chloromethyl ketone) covalently bound to the active site); experiment: BLI; class meaning: paragraph 914
T1 construct: BLI antigen bought from Haematologic Technologies (HCIXA-EGR); also called FIXa with substrate mimic

Binding result, binds:
B1
B2
B3
B4
B5
B6
B7
B8
B9
B10
B11
B12
B13
B14
B15
B16
B17
B18
B19
B20
B21
B22
B23

biological target: T2, non-activatable Factor X (FXn) (Homo sapiens (Human), UniProt P00742 41-488, single biotin on the C-terminal BioTag); experiment: BLI; class meaning: paragraph 285
T2 construct: also called BIIB-FX-015

Binding result, binds:
B24
